{"source": "paper doi:10.1101/2022.08.12.503734", "target": "GST-Cln3-10A (S. cerevisiae (budding yeast)) (UniProt P13365)", "sequence (P13365 whole entry)": "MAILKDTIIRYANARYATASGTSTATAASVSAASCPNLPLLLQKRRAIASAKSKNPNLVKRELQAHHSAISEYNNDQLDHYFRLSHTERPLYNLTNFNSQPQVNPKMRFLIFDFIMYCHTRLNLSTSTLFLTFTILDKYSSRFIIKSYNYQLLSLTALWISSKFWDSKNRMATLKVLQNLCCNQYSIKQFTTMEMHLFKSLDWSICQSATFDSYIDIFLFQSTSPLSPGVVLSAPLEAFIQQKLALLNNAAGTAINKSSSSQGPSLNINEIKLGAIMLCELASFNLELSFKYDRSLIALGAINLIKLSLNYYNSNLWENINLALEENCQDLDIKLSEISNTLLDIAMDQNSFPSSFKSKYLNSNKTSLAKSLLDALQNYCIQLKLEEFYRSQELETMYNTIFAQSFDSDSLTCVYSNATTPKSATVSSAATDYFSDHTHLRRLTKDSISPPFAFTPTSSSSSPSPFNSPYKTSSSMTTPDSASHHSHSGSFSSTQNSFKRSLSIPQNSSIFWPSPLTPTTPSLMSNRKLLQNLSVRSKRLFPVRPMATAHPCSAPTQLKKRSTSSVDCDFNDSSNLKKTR", "assay": "pull-down", "data": [{"substance": "Cdk1 (from UniProt P00546 1-298) (enzyme)", "values": [{"measurement": "fold lower amount of associated Cdk1 than with GST-Clb2", "value": 6, "unit": "fold"}]}]}
